Three molecules from doi:10.1101/180315 (bioRxiv, 2018) can be followed below.

B1: human WIPI4 (natural protein, UniProt Q9Y484 1-360, looked up)
chain: MTQQPLRGVTSLRFNQDQSCFCCAMETGVRIYNVEPLMEKGHLDHEQVGSMGLVEMLHRSNLLALVGGGSSPKFSEISVLIWDDAREGKDSKEKLVLEFTFTKPVLSVRMRHDKIVIVLKNRIYVYSFPDNPRKLFEFDTRDNPKGLCDLCPSLEKQLLVFPGHKCGSLQLVDLASTKPGTSSAPFTINAHQSDIACVSLNQPGTVVASASQKGTLIRLFDTQSKEKLVELRRGTDPATLYCINFSHDSSFLCASSDKGTVHIFALKDTRLNRRSALARVGKVGPMIGQYVDSQWSLASFTVPAESACICAFGRNTSKNVNSVIAICVDGTFHKYVFTPDGNCNREAFDVYLDICDDDDF
B2: ATG18 (natural protein, S. cerevisiae, UniProt P43601 1-500, looked up)
chain: MSDSSPTINFINFNQTGTCISLGTSKGFKIFNCEPFGKFYSEDSGGYAIVEMLFSTSLLALVGIGDQPALSPRRLRIINTKKHSIICEVTFPTSILSVKMNKSRLVVLLQEQIYIYDINTMRLLHTIETNPNPRGLMAMSPSVANSYLVYPSPPKVINSEIKAHATTNNITLSVGGNTETSFKRDQQDAGHSDISDLDQYSSFTKRDDADPTSSNGGNSSIIKNGDVIVFNLETLQPTMVIEAHKGEIAAMAISFDGTLMATASDKGTIIRVFDIETGDKIYQFRRGTYATRIYSISFSEDSQYLAVTGSSKTVHIFKLGHSMSNNKLDSDDSNMEEAAADDSSLDTTSIDALSDEENPTRLAREPYVDASRKTMGRMIRYSSQKLSRRAARTLGQIFPIKVTSLLESSRHFASLKLPVETNSHVMTISSIGSPIDIDTSEYPELFETGNSASTESYHEPVMKMVPIRVVSSDGYLYNFVMDPERGGDCLILSQYSILMD

Experiment [1] addresses human ATG2A (human, UniProt Q2TAZ0 1-1938). Kind of experiment: negative-stain EM.
The target of experiment [2] is S. cerevisiae ATG2 (S. cerevisiae, UniProt P53855 1-1592). Briefly: negative-stain EM.
Sequence of S. cerevisiae ATG2 (P53855 whole entry): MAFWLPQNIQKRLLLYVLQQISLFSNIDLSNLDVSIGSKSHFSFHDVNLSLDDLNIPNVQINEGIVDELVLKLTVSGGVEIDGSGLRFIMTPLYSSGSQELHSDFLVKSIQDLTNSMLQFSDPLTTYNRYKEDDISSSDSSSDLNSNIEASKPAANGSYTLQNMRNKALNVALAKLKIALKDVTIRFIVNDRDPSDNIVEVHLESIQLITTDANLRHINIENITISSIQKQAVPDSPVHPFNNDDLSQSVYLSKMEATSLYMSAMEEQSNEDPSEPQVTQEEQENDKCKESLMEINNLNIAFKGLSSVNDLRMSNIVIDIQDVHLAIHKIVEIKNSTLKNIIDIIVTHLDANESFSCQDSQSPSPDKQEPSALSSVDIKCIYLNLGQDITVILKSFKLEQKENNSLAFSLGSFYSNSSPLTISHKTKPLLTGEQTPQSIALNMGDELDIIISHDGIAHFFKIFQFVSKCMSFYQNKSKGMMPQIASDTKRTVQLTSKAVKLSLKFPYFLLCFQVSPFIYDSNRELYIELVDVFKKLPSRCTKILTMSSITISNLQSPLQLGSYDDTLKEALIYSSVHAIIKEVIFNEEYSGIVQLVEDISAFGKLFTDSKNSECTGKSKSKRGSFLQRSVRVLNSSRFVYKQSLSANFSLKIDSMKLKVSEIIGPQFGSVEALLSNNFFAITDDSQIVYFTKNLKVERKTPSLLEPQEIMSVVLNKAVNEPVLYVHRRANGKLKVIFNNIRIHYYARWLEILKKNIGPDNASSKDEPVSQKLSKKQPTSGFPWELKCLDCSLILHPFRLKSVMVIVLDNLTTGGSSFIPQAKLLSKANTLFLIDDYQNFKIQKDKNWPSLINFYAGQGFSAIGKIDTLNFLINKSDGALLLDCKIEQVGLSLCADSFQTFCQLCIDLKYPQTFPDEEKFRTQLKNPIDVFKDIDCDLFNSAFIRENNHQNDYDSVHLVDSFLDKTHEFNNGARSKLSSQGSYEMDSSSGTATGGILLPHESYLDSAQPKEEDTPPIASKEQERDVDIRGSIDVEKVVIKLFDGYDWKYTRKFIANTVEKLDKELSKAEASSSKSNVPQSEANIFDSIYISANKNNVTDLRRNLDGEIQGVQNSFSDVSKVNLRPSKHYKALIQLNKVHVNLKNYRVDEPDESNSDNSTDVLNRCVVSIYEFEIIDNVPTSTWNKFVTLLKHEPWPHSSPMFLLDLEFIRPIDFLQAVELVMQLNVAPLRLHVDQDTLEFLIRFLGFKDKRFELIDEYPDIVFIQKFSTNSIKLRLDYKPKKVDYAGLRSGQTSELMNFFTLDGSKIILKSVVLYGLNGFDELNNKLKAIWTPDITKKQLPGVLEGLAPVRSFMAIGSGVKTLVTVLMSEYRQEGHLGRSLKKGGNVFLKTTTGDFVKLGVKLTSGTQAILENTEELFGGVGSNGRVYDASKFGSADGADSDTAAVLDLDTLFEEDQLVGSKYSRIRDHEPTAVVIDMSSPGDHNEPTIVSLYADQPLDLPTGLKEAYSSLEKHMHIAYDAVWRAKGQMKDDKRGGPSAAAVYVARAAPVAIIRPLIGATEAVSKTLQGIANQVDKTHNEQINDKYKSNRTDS
Experiment [3] concerns the target B1. Kind of experiment: SEC. A general note: SEC sorts molecules by how far they enter the pores of the column.

Sequence of human ATG2A (Q2TAZ0 whole entry): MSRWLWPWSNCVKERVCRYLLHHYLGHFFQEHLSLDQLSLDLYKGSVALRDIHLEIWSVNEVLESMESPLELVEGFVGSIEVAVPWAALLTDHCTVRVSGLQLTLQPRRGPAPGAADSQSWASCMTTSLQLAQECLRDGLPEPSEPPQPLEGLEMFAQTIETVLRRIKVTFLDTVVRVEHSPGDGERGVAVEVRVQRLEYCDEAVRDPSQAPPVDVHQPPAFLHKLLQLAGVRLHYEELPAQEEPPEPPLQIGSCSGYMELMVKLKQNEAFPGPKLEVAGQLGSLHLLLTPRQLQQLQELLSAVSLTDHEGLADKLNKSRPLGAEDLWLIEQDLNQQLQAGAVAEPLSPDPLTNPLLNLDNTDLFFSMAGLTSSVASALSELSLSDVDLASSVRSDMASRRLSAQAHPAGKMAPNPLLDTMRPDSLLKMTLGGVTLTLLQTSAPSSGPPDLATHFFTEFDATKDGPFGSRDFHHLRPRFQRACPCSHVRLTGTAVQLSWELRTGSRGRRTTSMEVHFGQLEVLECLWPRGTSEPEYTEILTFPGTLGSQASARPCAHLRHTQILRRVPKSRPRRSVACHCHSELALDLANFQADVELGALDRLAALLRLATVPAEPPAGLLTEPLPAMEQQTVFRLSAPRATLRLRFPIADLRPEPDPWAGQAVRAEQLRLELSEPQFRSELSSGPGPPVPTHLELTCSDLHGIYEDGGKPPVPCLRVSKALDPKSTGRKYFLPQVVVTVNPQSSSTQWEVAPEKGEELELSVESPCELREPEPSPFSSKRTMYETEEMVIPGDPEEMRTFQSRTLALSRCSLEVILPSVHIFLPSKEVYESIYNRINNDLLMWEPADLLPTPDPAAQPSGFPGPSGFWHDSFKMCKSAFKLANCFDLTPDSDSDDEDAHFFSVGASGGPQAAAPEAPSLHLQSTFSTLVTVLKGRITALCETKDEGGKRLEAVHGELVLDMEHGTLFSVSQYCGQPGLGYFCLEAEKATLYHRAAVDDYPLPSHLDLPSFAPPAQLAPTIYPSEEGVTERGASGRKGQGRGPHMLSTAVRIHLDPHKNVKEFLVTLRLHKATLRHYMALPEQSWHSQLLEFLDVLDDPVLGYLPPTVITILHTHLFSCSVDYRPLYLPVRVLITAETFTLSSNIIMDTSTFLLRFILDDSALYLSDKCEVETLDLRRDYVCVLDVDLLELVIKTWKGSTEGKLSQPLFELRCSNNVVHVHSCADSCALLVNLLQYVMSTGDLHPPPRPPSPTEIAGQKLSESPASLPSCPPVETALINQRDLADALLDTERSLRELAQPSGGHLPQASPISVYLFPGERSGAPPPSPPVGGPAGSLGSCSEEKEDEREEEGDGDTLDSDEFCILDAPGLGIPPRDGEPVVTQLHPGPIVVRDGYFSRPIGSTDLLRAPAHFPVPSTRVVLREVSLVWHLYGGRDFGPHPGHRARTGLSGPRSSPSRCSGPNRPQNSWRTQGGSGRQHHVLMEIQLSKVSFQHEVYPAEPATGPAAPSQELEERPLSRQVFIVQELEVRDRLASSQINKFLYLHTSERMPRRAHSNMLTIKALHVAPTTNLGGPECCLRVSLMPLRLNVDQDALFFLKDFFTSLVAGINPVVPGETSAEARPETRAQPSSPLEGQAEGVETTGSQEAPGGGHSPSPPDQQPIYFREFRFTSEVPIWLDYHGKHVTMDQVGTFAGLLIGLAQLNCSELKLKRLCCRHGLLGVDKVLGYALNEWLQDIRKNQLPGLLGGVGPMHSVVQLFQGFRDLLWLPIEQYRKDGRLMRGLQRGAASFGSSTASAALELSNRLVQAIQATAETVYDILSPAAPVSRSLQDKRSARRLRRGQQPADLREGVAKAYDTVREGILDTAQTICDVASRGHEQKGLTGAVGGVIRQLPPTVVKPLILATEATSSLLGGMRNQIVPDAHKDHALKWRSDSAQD

In the case of B1, the “stoichiometry N” value in experiment [1] turned out to be 1.

For the molecule B2, the binding result in experiment [2] is “binds”.

With DSDEFCILDAPGLGIPPRDGEPVVTQLHPGPIVVRDGYFSRPIGSTD (domain or fragment, human, UniProt Q2TAZ0 1358-1404, looked up) [6xHis-GB1-ATG2A (1358-1404)], the binding result in experiment [3] is “binds”.

One may read the stoichiometry N as a count of units in the complex or per binding partner.
